According to PMC9855186, “Photoautotrophic Growth Rate Enhancement of Synechocystis sp. PCC6803 by Heterologous Production of 2-Oxoglutarate:Ferredoxin Oxidoreductase from Chlorobaculum tepidum” (Biology, 2022):

B1: CtOGOR (2-oxoglutarate:ferredoxin oxidoreductase) (Chlorobaculum tepidum TLS) (protein)
chain 1: MSDTVILNNNDMVISKTNVSVLFAGDSGDGMQLTGTQFANTVAVYGSDLNTFPNFPSEIRPPAGTVAGVSGFQLQFGTTGVYTPGAKFDVMIAMNAAALKANLKNLHHGGIIIADTDGFDAKNLNLAGYGETNNPLEDGTLTDYTVFKIPVISLTRQALADTGLSTKIIDRCKNMFVLGVLYWLYSLPLETTIEALQSKFKNKQDIAEANIKAVKAGYNFGDETEMFSQHGRFCVPPAQKKKGVYRRVTGNEASAIGLAAAAQKAGLELFLGSYPITPASEILQTLAGLKKWGVKTFQAEDEIAGILTSIGAAYGGALAATNTSGPGLALKTEGMGLAVILELPLVIINVMRGGPSTGLPTKPEQSDLLMAMYGRHGEAPMPVIAAMSPVDCFYAAYEAAKIAVEYMTPVLCLTDGYLALSSEPMLVPSPDELASITPMFSPERKADDPPYLPYKRDERCVRPWGIPGTPGLEHRIGGLEKQNETGHVSHDPENHALMTRLRAEKVAKVADIIPDLTIDNGPEKGDLLVLGWGSTYGAIKKAVEQAREGGLDVAHAHLRYINPFPKNLGAMLGNFKKVLIPENNCGQLLSLIRDKFLIEPVGFSKVQGLPFNEMEIEEKITDILKEL
chain 2: MTDTHTCLTAKDFTSNQEPKWCPGCGDFMVLQQLKNAMAELCLKTEEVVVVSGIGCSSRLPYYINTYGVHGIHGRAMAMASGLKVARPDLSVWVGTGDGDALSIGGNHYIHTVRRNLDINVVLFNNEIYGLTKGQYSPTSKVGLRTVTSPTGVVDYPINTIALTLGAGGTFVARVMDRDGKLMKEIFKRAHNHKGTSIVEIYQNCPIFNDGAFRAFSDKERKDDTTLYLEQGQPLVFGANGSKGIYLDGFKPTVIDLEKSGVSKDDLWIHDENDLIKANILSRFFDDPNSTEEFLPRPFGIFYVEDRFTYEQALSAQIDKAQEKGEGTLEELLAGNSTWTIN
notes: heterotetramer (alpha-beta)2, 220 kDa; N-terminal His6-KorA and C-terminal strep-tagged KorB, tags kept; codon-optimised genes; E. coli BL21(DE3); Fe-S clusters and TPP reconstituted
B2: Icd (isocitrate dehydrogenase) (Synechocystis sp. PCC 6803 substr. Kazusa) (protein)
chain: MYEKLQPPSVGSKITFVAGKPVVPNDPIIPYIRGDGTGVDIWPATELVINAAIAKAYGGREEINWFKVYAGDEACELYGTYQIFPEDTLTAIKEYGVAIKGPLTTPVGGGIRSLNVALRQIFDLYTCVRPCRYYPGTPSPHKTPEKLDIIVYRENTEDIYLGIEWAEGTEGAKKLIAYLNDELIPTTPALGKKQIRLDSGIGIKPISKTGSQRLVRRAILHAKRLPKAKQMVTLVHKGNIMKFTEGPFRDWGYELATTEFRAECVTERESWICGNKESNPDLTIEANAHMIDPGYDTLTEEKQAVIKQEVEQVLNSIWESHGNGQWKEKVMVNDRIADSIFQQIQTRPDEYSILATMNLNGDYLSDAAAAVVGGLGMGPGANIGDSAAIFEATHGTAPKHAGLDRINPGSVILSGVMMLEFMGWQEAADLIKKGIGAAIANREVTYDLARLMEPKVDKPLKCSEFAQAIVSHFDD

Legend:
[1] = substrate: CC(C)(COP(=O)(O)OP(=O)(O)OC[C@H]1O[C@@H](n2cnc3c(N)ncnc32)[C@H](O)[C@@H]1OP(=O)(O)O)[C@@H](O)C(=O)NCCC(=O)NCCSC(=O)CCC(=O)O; test: coupled Fd/FNR assay, NADPH decrease at A340, Michaelis-Menten fit; type: biochemical, Chlorobaculum tepidum; details: carboxylation, 50 mM sodium bicarbonate fixed, 0.15 mM NADPH, 0.1 μM FNR, 1 μM Synechocystis Fd (slr1382), 1 mM MgCl2, 1 mM DTT, 1 mM TPP, pH 7.5, 30 °C, anaerobic, kcat per αβ-protomer
Text: coupled Fd/FNR assay, NADPH decrease at A340, Michaelis-Menten fit on CtOGOR (2-oxoglutarate:ferredoxin oxidoreductase)

[2] = substrate: CC(C)(COP(=O)(O)OP(=O)(O)OC[C@H]1O[C@@H](n2cnc3c(N)ncnc32)[C@H](O)[C@@H]1OP(=O)(O)O)[C@@H](O)C(=O)NCCC(=O)NCCS; test: coupled Fd/FNR assay, NADP+ reduction at A340, Michaelis-Menten fit; type: biochemical, Chlorobaculum tepidum; details: decarboxylation, 5 mM 2-oxoglutarate fixed, 0.15 mM NADP+, 0.1 μM FNR, 1 μM Synechocystis Fd (slr1382), 1 mM MgCl2, 1 mM DTT, 1 mM TPP, pH 7.5, 30 °C, anaerobic, kcat per αβ-protomer
Text: (§1) coupled Fd/FNR assay, NADP+ reduction at A340, Michaelis-Menten fit on CtOGOR (2-oxoglutarate:ferredoxin oxidoreductase)

[3] = substrate: O=C(O)CCC(=O)C(=O)O; test: as above; type: biochemical, Chlorobaculum tepidum; details: decarboxylation, 0.5 mM CoA fixed, 0.15 mM NADP+, 0.1 μM FNR, 1 μM Synechocystis Fd (slr1382), 1 mM MgCl2, 1 mM DTT, 1 mM TPP, pH 7.5, 30 °C, anaerobic, kcat per αβ-protomer
Text: as §1

[4] = substrate: O=C(O)C[C@H](C(=O)O)[C@@H](O)C(=O)O; test: NADP+ reduction at A340, Michaelis-Menten fit; type: biochemical, Synechocystis sp. PCC 6803; details: decarboxylation, 0.15 mM NADP+, 10 mM HEPES pH 8.0, 40 mM MgCl2
[5] = substrate: O=C(O)CCC(=O)C(=O)O; test: NADPH decrease at A340, Michaelis-Menten fit; type: biochemical, Synechocystis sp. PCC 6803; details: carboxylation, 50 mM sodium bicarbonate fixed, 0.15 mM NADPH, 10 mM HEPES pH 8.0, 40 mM MgCl2

Protein	Km [1] [mM]	kcat [1] [s⁻¹]	kcat/Km [1] [M⁻¹ s⁻¹]	Km [2] [mM]	kcat [2] [s⁻¹]	kcat/Km [2] [M⁻¹ s⁻¹]	Km [3] [mM]	kcat [3] [s⁻¹]	kcat/Km [3] [M⁻¹ s⁻¹]	Km [4] [mM]	Km [5] [mM]
B1	0.024 ± 0.002	2.6 ± 0.1	110000 ± 3500	0.042 ± 0.015	8.1 ± 0.2	192000 ± 2400	1.689 ± 0.092	8.4 ± 0.1	5000 ± 100		
B2										0.121 ± 0.013	1.003
